Measured values reported in article PMC5811392 (Biochemistry, 2018).

What was measured:
[1] = target: T1, Human p53 DNA-binding domain (residues 88-312) (human, UniProt P04637 88-312); assay: ITC
[2] = target: T1, Human p53 DNA-binding domain (residues …); assay: fluorescence polarisation
[3] = target: T1, Human p53 DNA-binding domain (residues …); assay: NMR titration

T1 sequence (P04637 88-312): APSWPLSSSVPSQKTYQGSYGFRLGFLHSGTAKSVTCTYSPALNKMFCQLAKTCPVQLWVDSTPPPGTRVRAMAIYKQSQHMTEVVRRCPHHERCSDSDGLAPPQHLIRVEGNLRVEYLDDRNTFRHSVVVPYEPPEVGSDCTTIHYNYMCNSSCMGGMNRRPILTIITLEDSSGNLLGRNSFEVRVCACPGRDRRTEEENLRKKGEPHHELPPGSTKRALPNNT

| Binder | Kd [1] | dH [1] | Kd [2] | Kd [3] |
| --- | --- | --- | --- | --- |
| full length p23 (residues 1-160) (natural protein, human, UniProt Q15185 1-160, looked up) MQPASAKWYDRRDYVFIEFCVEDSKDVNVNFEKSKLTFSCLGGSDNFKHLNEIDLFHCIDPNDSKHKRTDRSILCCLRKGESGQSWPRLTKERAKLNWLSVDFNNWKDWEDDSDEDMSNFDRFSEMMNNMGGDEDVDLPEVDGADDDSQDSDDEKMPDLE | 7 ± 2 µM | -1.9 ± 100 kcal/mol | 21 ± 7 µM | 8 ± 2 µM |
| FDRFSEMMNNMGGDEDVDLPEVDGADDDSQDSDDEKMPDLE (domain or fragment, human, UniProt Q15185 120-160, looked up) [GB1-p23 (120-160)] | 24 ± 15 µM |  |  |  |
| GB1-p23 (110-160) (domain or fragment, human, UniProt Q15185 110-160, looked up) EDDSDEDMSNFDRFSEMMNNMGGDEDVDLPEVDGADDDSQDSDDEKMPDLE |  |  |  | 6 ± 4 µM |
